Data reported in paper PMC7939381, “MMP activation–associated aminopeptidase N reveals a bivalent 14-3-3 binding motif” (The Journal of Biological Chemistry, 2021).

Assays:
[1] = biological target: peptide 11, APN 36–73 pSer43 pThr63, as used in ITC and co-crystallisation (human) (UniProt P15144); test: ITC; 14-3-3η (500 µM; 250 µM for peptide 11) titrated into peptide (50 µM; 12.5 µM for peptide 11), 18 injections; 50 mM HEPES pH 7.4, 250 mM NaCl, 20 mM MgCl2; 25 °C
[2] = biological target: peptide 7, APN 36–73 pSer43, as used in ITC (human) (UniProt P15144); test: as above
[3] = biological target: fluorescently labeled peptide 11, APN 36–73 pSer43 pThr63 (human) (UniProt P15144); test: fluorescence polarisation; direct binding: dilution series of 14-3-3 protein added to FITC-labeled peptide (30 nM stock, 5 µl in 15 µl); 10 mM HEPES pH 7.4, 150 mM NaCl, 2 mM DTT, 0.01% Tween 20; 60 min at room temperature, read at 25 °C; four-parameter fit
[4] = biological target: fluorescently labeled peptide 7, APN 36–73 pSer43 (human) (UniProt P15144); test: as above
[5] = biological target: 14-3-3β/α (UniProt P31946); test: direct fluorescence polarisation titration; settings: reference: peptide 7 (pS43 only)
[6] = biological target: 14-3-3σ (stratifin, SFN) (UniProt P31947); test: direct fluorescence polarisation titration; settings: reference: peptide 7 (pS43 only)
[7] = biological target: 14-3-3η (UniProt Q04917); test: direct fluorescence polarisation titration; settings: reference: peptide 7 (pS43 only)

peptide 11, APN 36–73 pSer43 pThr63, as used in ITC and co-crystallisation (human), sequence (P15144 36-73): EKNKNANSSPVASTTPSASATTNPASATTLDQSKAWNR
peptide 7, APN 36–73 pSer43, as used in ITC (human), sequence (P15144 36-73): as above
fluorescently labeled peptide 7, APN 36–73 pSer43 (human), sequence (P15144 36-73): as above
fluorescently labeled peptide 11, APN 36–73 pSer43 pThr63 (human), sequence (P15144 36-73): as above

Substance: 14-3-3η, full length, N-terminally His6-tagged (from UniProt Q04917 1-246) (natural protein)
- Kd [1]: 0.14 µM
- stoichiometry N [1]: 0.58
- Kd [2]: 40.7 µM
- stoichiometry N [2]: 1.13
- Kd [3]: 0.046 µM
- Kd [4]: 24 µM

Substance: Aminopeptidase N (APN, CD13) 36-73 (from UniProt P15144) peptide 11 (pS43 pT63)
- binding against the reference ([5]; sites T63): stronger
- binding against the reference ([6]; sites T63): stronger

Substance: Aminopeptidase N (APN, CD13) 36-73 (from UniProt P15144) peptide 10 (pS43 pS61)
- binding against the reference ([5]; sites S61): stronger
- binding against the reference ([7]; sites S61): stronger
- binding against the reference ([6]; sites S61): stronger

Substance: Aminopeptidase N (APN, CD13) 36-73 (from UniProt P15144) peptide 12 (pS43 pT64)
- binding against the reference ([5]; sites T64): stronger
- binding against the reference ([7]; sites T64): stronger
- binding against the reference ([6]; sites T64): stronger
